Data reported in patent US20180094059A1.

Biological target: TRAIL receptors (TRAILR) on tumor cells
Assay: flow cytometry, Colo205 cells

scTRAIL3-…, sequence (P50591 other isoform, or with tags, fused parts or gaps): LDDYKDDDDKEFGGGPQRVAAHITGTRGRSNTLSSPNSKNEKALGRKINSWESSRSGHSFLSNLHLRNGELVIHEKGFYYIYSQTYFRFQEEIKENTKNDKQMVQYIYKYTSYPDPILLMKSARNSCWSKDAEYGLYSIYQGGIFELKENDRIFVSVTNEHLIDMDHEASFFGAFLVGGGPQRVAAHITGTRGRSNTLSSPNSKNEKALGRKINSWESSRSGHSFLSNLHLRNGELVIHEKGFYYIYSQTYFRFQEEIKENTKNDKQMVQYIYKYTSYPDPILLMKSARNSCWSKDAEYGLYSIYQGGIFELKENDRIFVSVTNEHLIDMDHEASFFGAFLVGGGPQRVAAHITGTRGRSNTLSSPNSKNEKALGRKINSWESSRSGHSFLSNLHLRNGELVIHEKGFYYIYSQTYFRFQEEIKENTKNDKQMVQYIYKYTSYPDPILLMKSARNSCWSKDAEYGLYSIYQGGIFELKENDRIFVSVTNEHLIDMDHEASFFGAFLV

EC50: 5.67 nM
Substance: scTRAIL3-… (from UniProt P50591 118-281) (ligand)
